Test: yeast display, Sf9 membrane polyspecificity reagent, FACS + sequencing; frameworks hold sequencing errors
Method in brief: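 A nanobody's polyreactivity label depends on the gate it was sorted from. Yeast display cells were stained with 10% biotinylated, detergent-solubilized Sf9 membrane reagent for 1 hour at 4 °C, enriched on streptavidin microbeads and sorted by FACS. The low and high (top ~1%) gates were set on anti-HA fluorescence for expression and streptavidin fluorescence for reagent binding.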

Sequence | polyreactivity (PSR sort gate)
QVQLVESGGGLVQAGGSLRLSCAASGSILIWNTMGWDRQAPGKDRELVAAISSGGSTYYADSVKGRFTISRDNAKNTVYLQMNSLKPEDTAVYYCNVDLPRVLTDDSWGQGTHVTVSS | low polyreactivity
QVQLVESGGGLVQAGGSLRLSCAASGSTFYVYPMGWYRQAPGKERELVAAITRGGTTYYADSVKGRFTISRDNAKNTVYLQMNSLKPEDTAVYYCAKYLTGAADLVPEYDYWGQGTQVTVSS | low polyreactivity
QVQLVESGGGLVQAGGSLRLSCAASGFTFYLYTMGWYRQAPGKERELVATITSDGGTNYADSVKGRFTISRDNAKYTVYLQMNSLKPEDTAVYYCNAASRRGSRKQAKYDYWGQGTQVTVSS | low polyreactivity
EVQLVESGGGLVQAGGSLRLSCAASGRTFSYYAMGCYRQAPGKERELVAAISGGGSTNYADSVKGRFTISRDNAKYTVYLQMNSLKPEDTAVYYCAVGGFLRYRISLGKSYYYWGQGTQVTVSS | high polyreactivity
QVQLVESGGRLVQAGASLRLSCAASASIFASNAMGWYRHEPGKERELVAAINSGDSTNYADSVKGRFTISRDNAKNTVYLQMNSLKPEDTAVYYCARGLEERYDYWGQGTQVTVSS | low polyreactivity
QVQLEESGGGLVQAGGSLRLSCAASGRIFNTNAMGSYRQAPGKERELVAGITYSGDSTYYADSVKGRFTISRDNAKNTVYLQMNSLKPEDTAVYYCATDPASPYLYDYWGQGTQVTVSS | low polyreactivity
QVQLVESGGGLVQAGGSLRLSCAASGIIFYEYVMGWYRQAPGKERELVAAISRSGGSTYYADSVKGRFTISRDNAKNTVYLQMNSLKPEDTAVYYCAVDAYRYWWTTYVSDFDYWGQGTQVTVSS | high polyreactivity
QVQLVETGGGLVQAGGSLRLSCAASGRTFRAYAMGWYRQAPGKEMELVAAITSGGSTKYADSVNGRFTISRDNAKNTVYLQMTRLKPEDTAVYYCAATLALESYIYDYWGQGTQVTVSS | high polyreactivity
QVQLVESGGGLVQAGGSLRLSCAASGSIFYWYVMVWYRQAPGKERELVATISDSTNYADSVKGRFTISRDNAKNTVYLQMNSLKPEDTAVYYCNARVRGLGKYESWGQGTQVTVSS | low polyreactivity
QVQLVESGGGLVQAGGSLRLSCAASGRILAYYVMGWYRQAPGKERELVAGINWSGGSTYYADSVKGRFTISRDNAKHTFYLQMNSLKPEDTGVYNCAARFVGVRDGYYYWGQGTQVTVSS | high polyreactivity
QVQLVESGGGLVQAGGSLRLSCAASGSSFEPNAMGWYRQAPGKERELVASITSSGGNTYYADSVKGRFTISRDNAKNTVYLQMNSLKPEDTAVYSCAAGSGYAFGGYYLWGFGYWGQGTQVTVSS | low polyreactivity
QVQLVESGGGLVQAGGSLRLSCAASGRTFATNAMGWYRQAPGKERELVAAISRRGASTYYADSVKGRFTISRDNAKNTVYLQMNSLKPEDTAVYYCAARQYIRGARIYDYWGQGTQVTVSS | high polyreactivity
QGQLVESGGGLVQAGGSLRLSCAASGITVGVYARGRYRQEPGKEREFVADIDRTGGSTYAVSVKGRFTISRDIAKNTVYLQMNSLKPEDTAVYYCAAGWGFRFYYWYWGQGTQVTVSS | high polyreactivity
QVQLVESGGGLVQAGGSLRLICAASGRTFDHNAMGWYRQAPGKERELVAAITWSGGITDYADSVKRPFTISRDNAKNTVYLQMNSLKPEDTAVWGQGTQVTVSS | low polyreactivity
QVQLVESGGGLVQAGGSLRLSCASSGSTFRRNAMGWYRQAPGKERELVAAITWRGTSTYYADSVKGRFTISRDNAKNTVYLQMNSLKPEDTAVYYCNAVYNPYTTYSLSAYDYWGQGTQVTVSS | high polyreactivity
QVHLVESGGGLVQAGGSLRLSCAASGRTFYDNAMVWYRQAPGKERELVAAISKRGSSTYYADSVKGRFTISRYTAKNSVYLEMNSLKPEDTAVYYCAADSLLGWSVEYWGKGTQVTVSS | high polyreactivity
QVQLVESGGGLVQAGGSLRLSCAASGLTFYGNAMGWYRQAPGKERELVAAISSSGGTTYYADSVKGRFTISRDNAKNTVYLQMNSLKPEDTAVYYYWGQGTQVTVSS | low polyreactivity
QVQLVESGGVLVQAGGSLRLSCAASGSISYSYAMGWYRQAPGKERELVAAITWGGDSTYYADSVKGRFTISRDNAKNTVYLQMNSLKPEDTAVYYCAADLRFTYPVYRAGGGYDYWGQGTQVTVSS | low polyreactivity
QVQLVESGGGLVQAGGSLRLSCAASGFIFYDYDMGWYRQAPGKEREFVAAITYSGGSTYYADSVKGRFTISRDNAKNTVYLQMNCLKPEDTAFYYCADVKSRYAEAVDYFYWGQGTHVTVSS | low polyreactivity
QVQLVESGGGLVQAGGSLRLSCAASGRTFRYYAMGWYRQAPGKEREWDAAISRGDSTHYADSVKGRFTISRDNAKNSVYLQMNSLKPEDTEVYYCAAYRGRSVDRQPYYWGQGTQVTVSS | high polyreactivity
QVQLVESGGGLVQAGGSLRLSCAASGGIFPKNAMGWYRQAPGKERELVAAINWSGGTTNYADSVKGRFTISRDNAKNTVYLQMNSLKPEDTAVYYCAKQGLWIFVVVEMDYWGQGTQVNVSS | low polyreactivity
QVQLVESGGGLVQAGGSLRLSCAASALTFFYYAMGWYRQAPGKERELVAAISWSGGRTYYADSVKGRFTISRDNAKNTVYLQMNSLKPEDTAVYYCSADYITAHSSYSTYGYWGQGTQVTVSS | low polyreactivity

Sequence | polyreactivity (PSR sort gate)
QVQLVESGGGLVQAGGSLRLSCAASGRIFAPKAMGWYRQAPGKERELVADINFSGDSTYYADSVKGRFTISRDNAKNTVYLQMNSLKPEDTAVYYCAADISLVSYYYWGQGTQVTVSS | low polyreactivity
QVQLVESGGGLVQAGGSLRLSCAASGNTFTWYTMGWYRQAPGKERELVAVITSDGSTYYADSVKGRFTISRDNAKNTVYLQMNSLKPEDTAGYYCNALSADWYPEEDFWGQGTQVTVSS | low polyreactivity
QVQLVESGGGLVQAGGSLRLSCAASGRIFYRYAMGWYRPAPGKERELVATITGRGGSTYYADSVKGRFTISRDNAKNTVYLQMNSLKPEDTAVYYCATTRSVSYPYDGSYYWGQGTQVTVSS | high polyreactivity
QDQLVESGGGLVQAGGSLRLSCAASGNTLAANAMGWYRQAPGKERELVAAITYSGGSTYYADSVKGRFTISRDNAKNTVYLQMSSLKPEDTSVYYCNAPYVFSAGFDYWGQGTQVTVSS | low polyreactivity
QVQLVESGGGLVQAGGSLRLSCAASGIIFDHYAMGWYRQAPGKERELVAAISTGGGNTYYADSVKGRFTISRDNAKNTVYLQMNSLKPEDTAVYYCAARRGTGSYSYRYPYGYDYWGQGTQVTVSS | low polyreactivity
QVQLVESGGGLVQAGGSLRLSCAASGLIFRGNAMGWYRQAPGKERELVAGITRGGSTYYADSVKGRFTISRDNAKNTVYLQMNSLKPEDTAVYYCAAAFRDGFTRRYGYWGQGTQVTVSS | high polyreactivity
QVQLVESGGGLVQAGGILRLSCAASGIIFGPNAMGWYRQAPGKERELVAAITSGGRTYYADSVKGRFTISRDNAKNTVYLHMNSLKPEDTAVYYCAARVWSWRSKYDYWGQGTQVTVSS | high polyreactivity
QVQLVESGGGLVQARGSLRLSCAASGRTFRYYTMGWYRQAPGKEREFVAAITFRGGSTYYADSVKGRFTISRDNAKNTVYLQMNSLKPEDTAVYYCAAVGRYSRYPYSDTYGYWGQGTQVTVSS | high polyreactivity
QVQLVESGGGLVQAGGSLRLSCAASGSIFRLNAMGWYRQARGKERELVARIDSSGSTNYTDSVKGRFTISRDNAKNTVYLQMNSLKPEDTAVYYCAAGLVLIVGMDSWGQGTQVTVSS | low polyreactivity
QVQLVESGGGLVQAGGSLRLSCAASGRIFSYYAMGWYRQAPGKERELVAAISYSTTSTYYADSVKGRFTISRDNAKNTVYLQMNSLKPEDTAVYYCAAEFQPGSYTPTYDYWGQGTQVTVSS | low polyreactivity
QVQLVESGGGLVQAGGSLRLSCAASGRTSYRYAMGWYRQAPGKERELVAAISWSGGSTYYADSVKGRFTISRDNAKNTVSLQMNSLKPDDTAVYYCNARQHQVRWWLREFDYWGQGTQVTVSS | low polyreactivity
QVQLVESGGGLVQAGGSLRLSCAASGSIYYTNAMGWYRQAPGKERELVAAISYGGTTTYADSVKGRFTISRDNAKNTVYLQMNSLKPEDTAVYYCNADWLYYGYWGYGHIWYDYWGQGTQVTVSS | low polyreactivity
QVQLQESGGGLVQAGGSLRLSCAASGNIFLGGDKGWYRQAPGKEREFVAAISDGTSTNYADSVKGRFTISRDNAKNTVYLQMNSLKPEDTAVYYCAAQYRYQRYSYAMEYWGQGTQVTVSS | high polyreactivity
QVQLVESGGGLVQAGGSLSLSCAASGFIFGAYAMGWYRQAPRKERELVADITQNSGSTYYADSVKGRFTISRDNAKYTVYLQMNSVKPEVTAVYFCNADWETADDYWGQGTQVTVSS | low polyreactivity
QVQLVESGGGLVQAGGSLRLSCAASGFTFLVYVMGWYRQAPGKVRELVAAISSCGSSTYYADSVKGRFTISRDNAKNTVYLQMNSLKPEDTAVYYCAAAPYYSHEYDYWGQGTQVTVSS | low polyreactivity
QVQLVESGGGLVQAGGSVRLSCAASGFSFRLYVLGWYRQAPGTERELVAAISSLGGSTYYADSVKGRFTISRDNAKYTVDLQMNSLKPEDTAVYYCAADRPRGRETVDYWGHGTQVTVSS | high polyreactivity
QVQLVESGGGLVQAGGSLRLSCAASGYTFDAYAMGWYRQAHGKERELVAAINYSGGSTYADSVKGRFTISRDNAKNTVYLQMNSLKPEDTAVYYCATRLYGYWPNGFDYWGQGTQVTVSS | low polyreactivity
QVQLVESGGCLVQSGGSLRLSCAASGIILYYYAMGWYRQAPGKERELVAAISSGGNTYYADSVKGRFTISRDNAKNTVYLQMNSLKPEDPAVYFCASGTVIGGEYDYWGQGTQVTVSS | low polyreactivity
QVQLVESGGGLVQAGGSLRLSCAASGSTFEYYAMGWYRQAPGKERELVATISIDGRTNYADSVKGRFTISRDNAKYTVYLQMNSLKPEDTAVYYCAASDLTAISSKYDYWGQGTQVTVSS | low polyreactivity
QVQLVESGGGLVQAGGSLRLSCAASGRIFITKAMGWYRQAPGKERELVAAIRRRGGNTYYADSVKGRFTISRDNAKNTVYLQMNSLKPEDTAVYYCAVYPRPYKYNYWGQGTQVSVSS | high polyreactivity
QVQLVESGGGLVQAGGSLRLSCAASGSTFGYYTMGWYRQAPGKERQLVAAISWSGGSTYYADSVKGRFTISRDNAKNTVYLLMNSLKPEDTAVYYCARGSQYRLWRTPHYYWGQGTQVTVSS | high polyreactivity
